For the assay, the target named is T1, hGOAT-eGFP (human ghrelin O-acyltransferase with C-terminal eGFP and His10 tag) (human) (UniProt Q96T53).
T1 sequence: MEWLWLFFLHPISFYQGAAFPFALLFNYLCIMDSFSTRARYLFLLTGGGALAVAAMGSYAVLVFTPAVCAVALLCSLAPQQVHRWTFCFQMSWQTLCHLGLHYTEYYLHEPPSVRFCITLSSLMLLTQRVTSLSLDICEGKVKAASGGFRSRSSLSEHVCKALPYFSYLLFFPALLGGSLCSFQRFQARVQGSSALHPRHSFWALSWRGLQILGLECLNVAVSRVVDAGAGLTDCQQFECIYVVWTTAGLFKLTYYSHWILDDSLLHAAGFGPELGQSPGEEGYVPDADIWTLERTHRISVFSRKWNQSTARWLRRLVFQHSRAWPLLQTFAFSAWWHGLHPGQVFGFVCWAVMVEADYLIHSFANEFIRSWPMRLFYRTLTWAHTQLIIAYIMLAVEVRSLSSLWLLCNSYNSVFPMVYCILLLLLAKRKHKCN

Where no end group is shown, it is not given here.

B1: fluorescently labeled ghrelin mimetic peptide GSSFLC-NH2 (acrylodan-labelled) (peptide)
peptide: GSSFLC-NH2
modifications: not fully specified (residue 6); printed as GSSFLC_NH2_; ends and bridges not checked; also: acrylodan label, site not given here
B1 returned a ghrelin octanoylation activity of the MEGA-9 solubilisation supernatant of hGOAT-eGFP (HPLC, conversion of the fluorescent peptide substrate to the octanoylated product) of 20%.

Values taken from publication PMC10685452.
